Test results: the Human Domainome abundance scans (Beltran et al. 2025)
± gives the uncertainty stated by the source.

B1: Serine/threonine-protein kinase A-Raf, residues 21 to 89; numbered along this chain, P10398 (parent)
chain: VKVYLPNKQRTVVTVRDGMSVYDSLDKALKVRGLNQDCCVVYRLIKGRKTVTAWDTAIAPLDGEELIVE

Variants of: B1
Assay: abundance fitness (aPCA) (normalised: wild type 0, dead -1); higher = more abundant; growth selection in yeast, the domain comes from the species named
Settings: Homo sapiens

VKVYLPNKQRTVVTVRDGMSVYDSLDKALKVRGLNQDCCVVYRLIKGTKTVTAWDTAIAPLDGEELIVE and VKVYLPNKQRTVVTVRDGMSVYDSLDKALKVRGLNQDCCVVYRLIKGVKTVTAWDTAIAPLDGEELIVE are within error of each other in abundance fitness: -0.072 ± 0.1 for the first, 0.05 ± 0.07 for the second.

Going from VKVYLPNKQRTVVTVRDGMSVYDSLDKALKVRGLNQDCCVVYRLIKGWKTVTAWDTAIAPLDGEELIVE to VKVYLPNKQRTVVTVRDGMSVYDSLDKALKVRGLNQDCCVVYRLIKGRKTVTHWDTAIAPLDGEELIVE, the abundance fitness rises from -0.535 ± 0.082 to -0.098 ± 0.07.

VKVYLPNKQRTVVTVRDGMSVYDSLDKALKVRGLNQDCCVVYRLIKGRKTVTDWDTAIAPLDGEELIVE and VKVYLPNKQRTVVTVRDGMSVYDSLDKALKVRGLNQDCCVVYRLIKGRKTVTNWDTAIAPLDGEELIVE are within error of each other in abundance fitness: -0.03 ± 0.14 for the first, -0.257 ± 0.13 for the second.

Compared with VKVYLPNKQRTVVTVRDGMSVYDSLDKALKVRGLNQDCCVVYRLIKGRKTVTYWDTAIAPLDGEELIVE, VKVYLPNKQRTVVTVRDGMSVYDSLDKALKVRGLNQDCCVVYRLIKGRKTVTGWDTAIAPLDGEELIVE is higher in abundance fitness: -0.377 ± 0.15 for the first, -0.033 ± 0.057 for the second.

Compared with VKVYLPNKQRTVVTVRDGMSVYDSLDKALKVRGLNQDCCVVYRLIKGRKTVTLWDTAIAPLDGEELIVE, VKVYLPNKQRTVVTVRDGMSVYDSLDKALKVRGLNQDCCVVYRLIKGRKTVTTWDTAIAPLDGEELIVE is higher in abundance fitness: -0.455 ± 0.075 for the first, -0.127 ± 0.085 for the second.

VKVYLPNKQRTVVTVRDGMSVYDSLDKALKVRGLNQDCCVVYRLIKGRKTVTKWDTAIAPLDGEELIVE and VKVYLPNKQRTVVTVRDGMSVYDSLDKALKVRGLNQDCCVVYRLIKGRKTVTRWDTAIAPLDGEELIVE are within error of each other in abundance fitness: -0.079 ± 0.06 for the first, -0.149 ± 0.056 for the second.

First: VKVYLPNKQRTVVTVRDGMSVYDSLDKALKVRGLNQDCCVVYRLIKGRKTVTMWDTAIAPLDGEELIVE
Second: VKVYLPNKQRTVVTVRDGMSVYDSLDKALKVRGLNQDCCVVYRLIKGRKTVTSWDTAIAPLDGEELIVE
The abundance fitness of the first is lower: -0.549 ± 0.14 for the first, -0.058 ± 0.056 for the second.

First: VKVYLPNKQRTVVTVRDGMSVYDSLDKALKVRGLNQDCCVVYRLIKGRKTVTPWDTAIAPLDGEELIVE
Second: VKVYLPNKQRTVVTVRDGMSVYDSLDKALKVRGLNQDCCVVYRLIKGRKTVTCWDTAIAPLDGEELIVE
The abundance fitness of the first is higher: 0.032 ± 0.075 for the first, -0.166 ± 0.11 for the second.

First: VKVYLPNKQRTVVTVRDGMSVYDSLDKALKVRGLNQDCCVVYRLIKGRKTVTWWDTAIAPLDGEELIVE
Second: VKVYLPNKQRTVVTVRDGMSVYDSLDKALKVRGLNQDCCVVYRLIKGRKTVTEWDTAIAPLDGEELIVE
The abundance fitness of the first is lower: -0.728 ± 0.084 for the first, 0.08 ± 0.072 for the second.

First: VKVYLPNKQRTVVTVRDGMSVYDSLDKALKVRGLNQDCCVVYRLIKGRKTVTQWDTAIAPLDGEELIVE
Second: VKVYLPNKQRTVVTVRDGMSVYDSLDKALKVRGLNQDCCVVYRLIKGRKTVTADDTAIAPLDGEELIVE
The abundance fitness of the first is higher: -0.078 ± 0.064 for the first, -0.743 ± 0.33 for the second.

VKVYLPNKQRTVVTVRDGMSVYDSLDKALKVRGLNQDCCVVYRLIKGRKTVTAFDTAIAPLDGEELIVE and VKVYLPNKQRTVVTVRDGMSVYDSLDKALKVRGLNQDCCVVYRLIKGRKTVTAKDTAIAPLDGEELIVE are within error of each other in abundance fitness: -0.89 ± 0.29 for the first, -0.843 ± 0.13 for the second.

First: VKVYLPNKQRTVVTVRDGMSVYDSLDKALKVRGLNQDCCVVYRLIKGRKTVTAMDTAIAPLDGEELIVE
Second: VKVYLPNKQRTVVTVRDGMSVYDSLDKALKVRGLNQDCCVVYRLIKGRKTVTAEDTAIAPLDGEELIVE
The abundance fitness of the first is higher: -0.499 ± 0.1 for the first, -0.96 ± 0.13 for the second.

VKVYLPNKQRTVVTVRDGMSVYDSLDKALKVRGLNQDCCVVYRLIKGRKTVTANDTAIAPLDGEELIVE and VKVYLPNKQRTVVTVRDGMSVYDSLDKALKVRGLNQDCCVVYRLIKGRKTVTAGDTAIAPLDGEELIVE are within error of each other in abundance fitness: -0.917 ± 0.24 for the first, -1.03 ± 0.14 for the second.

VKVYLPNKQRTVVTVRDGMSVYDSLDKALKVRGLNQDCCVVYRLIKGRKEVTAWDTAIAPLDGEELIVE and VKVYLPNKQRTVVTVRDGMSVYDSLDKALKVRGLNQDCCVVYRLIKGRKSVTAWDTAIAPLDGEELIVE are within error of each other in abundance fitness: -0.515 ± 0.38 for the first, -0.402 ± 0.18 for the second.

VKVYLPNKQRTVVTVRDGMSVYDSLDKALKVRGLNQDCCVVYRLIKGRKPVTAWDTAIAPLDGEELIVE and VKVYLPNKQRTVVTVRDGMSVYDSLDKALKVRGLNQDCCVVYRLIKGRKAVTAWDTAIAPLDGEELIVE are within error of each other in abundance fitness: -0.715 ± 0.21 for the first, -0.227 ± 0.31 for the second.

Going from VKVYLPNKQRTVVTVRDGMSVYDSLDKALKVRGLNQDCCVVYRLIKGRKVVTAWDTAIAPLDGEELIVE to VKVYLPNKQRTVVTVRDGMSVYDSLDKALKVRGLNQDCCVVYRLIKGRKRVTAWDTAIAPLDGEELIVE, the abundance fitness falls from 0.362 ± 0.18 to -0.173 ± 0.35.

VKVYLPNKQRTVVTVRDGMSVYDSLDKALKVRGLNQDCCVVYRLIKGRKTHTAWDTAIAPLDGEELIVE and VKVYLPNKQRTVVTVRDGMSVYDSLDKALKVRGLNQDCCVVYRLIKGRKTKTAWDTAIAPLDGEELIVE are within error of each other in abundance fitness: -0.156 ± 0.22 for the first, -0.001 ± 0.076 for the second.

First: VKVYLPNKQRTVVTVRDGMSVYDSLDKALKVRGLNQDCCVVYRLIKGRKTLTAWDTAIAPLDGEELIVE
Second: VKVYLPNKQRTVVTVRDGMSVYDSLDKALKVRGLNQDCCVVYRLIKGRKTYTAWDTAIAPLDGEELIVE
The abundance fitness of the first is higher: 0.026 ± 0.046 for the first, -0.255 ± 0.2 for the second.

Going from VKVYLPNKQRTVVTVRDGMSVYDSLDKALKVRGLNQDCCVVYRLIKGRKTMTAWDTAIAPLDGEELIVE to VKVYLPNKQRTVVTVRDGMSVYDSLDKALKVRGLNQDCCVVYRLIKGRKTETAWDTAIAPLDGEELIVE, the abundance fitness falls from 0.093 ± 0.07 to -0.128 ± 0.064.

VKVYLPNKQRTVVTVRDGMSVYDSLDKALKVRGLNQDCCVVYRLIKGRKTGTAWDTAIAPLDGEELIVE showed an abundance fitness of -0.662 ± 0.11.
